Laboratory results from publication PMC2063623.

Target: pCMV-BD-DLC-1 (human) (UniProt Q96QB1)
Test: two-hybrid

Chain of UniProt Q96QB1 (Q96QB1 whole entry): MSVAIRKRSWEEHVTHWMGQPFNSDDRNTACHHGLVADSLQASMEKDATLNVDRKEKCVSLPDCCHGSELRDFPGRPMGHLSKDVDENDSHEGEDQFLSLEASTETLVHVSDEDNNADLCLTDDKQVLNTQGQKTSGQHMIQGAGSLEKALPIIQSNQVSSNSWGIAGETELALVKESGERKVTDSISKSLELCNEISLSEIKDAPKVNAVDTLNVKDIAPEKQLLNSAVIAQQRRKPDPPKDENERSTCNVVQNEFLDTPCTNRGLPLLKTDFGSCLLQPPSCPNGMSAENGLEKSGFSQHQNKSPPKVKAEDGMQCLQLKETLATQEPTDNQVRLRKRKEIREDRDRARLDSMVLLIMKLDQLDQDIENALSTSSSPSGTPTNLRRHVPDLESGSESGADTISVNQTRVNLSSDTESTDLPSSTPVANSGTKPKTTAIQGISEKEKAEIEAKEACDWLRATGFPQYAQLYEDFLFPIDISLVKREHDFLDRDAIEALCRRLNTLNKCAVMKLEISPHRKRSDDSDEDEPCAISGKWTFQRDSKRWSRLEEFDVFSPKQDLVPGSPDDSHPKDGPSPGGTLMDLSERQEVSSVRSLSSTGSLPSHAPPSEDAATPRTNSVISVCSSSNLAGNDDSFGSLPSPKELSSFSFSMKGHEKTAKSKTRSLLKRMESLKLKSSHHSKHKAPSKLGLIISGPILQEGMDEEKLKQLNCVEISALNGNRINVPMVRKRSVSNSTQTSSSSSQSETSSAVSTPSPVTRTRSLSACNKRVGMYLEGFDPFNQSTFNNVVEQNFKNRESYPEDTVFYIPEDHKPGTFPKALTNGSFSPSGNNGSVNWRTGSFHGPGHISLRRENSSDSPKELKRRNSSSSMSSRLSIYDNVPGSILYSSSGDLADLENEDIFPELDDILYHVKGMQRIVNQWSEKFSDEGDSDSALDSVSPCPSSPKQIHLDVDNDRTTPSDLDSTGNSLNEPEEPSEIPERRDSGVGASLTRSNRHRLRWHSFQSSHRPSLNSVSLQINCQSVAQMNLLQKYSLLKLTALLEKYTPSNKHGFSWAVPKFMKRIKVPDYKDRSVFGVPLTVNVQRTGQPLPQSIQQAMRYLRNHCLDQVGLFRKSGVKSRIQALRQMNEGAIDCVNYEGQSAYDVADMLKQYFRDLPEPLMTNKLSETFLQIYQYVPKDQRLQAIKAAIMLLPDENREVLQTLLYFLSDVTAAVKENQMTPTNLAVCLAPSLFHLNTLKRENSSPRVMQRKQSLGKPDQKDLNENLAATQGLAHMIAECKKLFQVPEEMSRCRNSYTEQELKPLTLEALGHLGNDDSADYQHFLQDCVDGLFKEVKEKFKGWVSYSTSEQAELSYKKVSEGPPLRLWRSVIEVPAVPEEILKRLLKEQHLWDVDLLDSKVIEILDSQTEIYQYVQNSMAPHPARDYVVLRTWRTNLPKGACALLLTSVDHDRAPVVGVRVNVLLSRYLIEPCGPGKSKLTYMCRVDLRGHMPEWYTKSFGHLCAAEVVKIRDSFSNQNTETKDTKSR

pCMV-AD-cten (from UniProt Q8IZW8 1-715) (natural protein)
fold enhancement of luciferase activity: 4 fold
